# Measured values: article PMC8692893
# Values joined by “and” are separate entries in the source; they are usually repeats but may differ in a detail not shown here. Equal entries are not always repeated.
# Columns and labels:
# [1] = molecular target: immunoglobulin new antigen receptor (IgNAR), secretory, in bamboo shark plasma (Chiloscyllium plagiosum (endogenous in plasma)); assay: non-reducing SDS-PAGE and SDS-agarose gel electrophoresis with Western blot; 1 µl plasma heated at 65°C for 10 min in SDS-loading buffer without reducing agents; 5% SDS-PAGE; 1.5% agarose gel with 0.1% SDS in the running buffer for plasma proteins larger than 300 kDa; blots probed with anti-IgNAR pAb or anti-IgM [Z69]; multimers counted in Ig monomers by molecular weight
# [2] = molecular target: IgM in bamboo shark plasma (Chiloscyllium plagiosum (endogenous in plasma)); assay: as above
# [3] = molecular target: IgW in bamboo shark plasma (Chiloscyllium plagiosum (endogenous in plasma)); assay: non-reducing gel electrophoresis with Western blot (data not shown); IgW multimers in plasma, data not shown; anti-IgW [V43]
substance,measurement,setting,value
"immunoglobulin new antigen receptor (IgNAR), secretory, in bamboo shark plasma (natural protein)",stoichiometry N,[1],3 and 4 and 5
IgM in bamboo shark plasma (natural protein),stoichiometry N,[2],5
IgW in bamboo shark plasma (natural protein),stoichiometry N,[3],5 and 2
